Reference: patent US20160297884A1 (Pfizer, published 2016)

T1: Human BCMA (human, UniProt Q02223 1-54, limits assumed)
T1 construct: Soluble analyte in SPR; construct not described; also called huBCMA; B-cell maturation antigen
T1 sequence (looked up): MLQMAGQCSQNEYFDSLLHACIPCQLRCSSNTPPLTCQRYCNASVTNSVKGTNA

B1: A02_Rd4_6nM_C16 (antibody, V domains shown)
VH: EVQLLESGGGLVQPGGSLRLSCAASGFTFSSYAMNWVRQAPGKGLEWVSAISDFGGSTYYADSVKGRFTISRDNSKNTLYLQMNSLRAEDTAVYYCARYWPMDIWGQGTLVTVSS
VL: EIVLTQSPGTLSLSPGERATLSCRASQSVSDLYLAWYQQKPGQAPRLLMYDASIRATGIPDRFSGSGSGTDFTLTISRLEPEDFAVYYCQQYQTWPLTFGQGTKVEIK
notes: Tested as IgG; also called P5AC16
B2: L3.PY/L1.PS/H2.QR (antibody, V domains shown)
VH: EVQLLESGGGLVQPGGSLRLSCAASGFTFGSYAMTWVRQAPGKGLEWVSAISGSGGNTFYADQRKGRFTISRDNSKNTLYLQMNSLRAEDTAVYYCARVSPIASGMDYWGQGTLVTVSS
VL: EIVLTQSPGTLSLSPGERATLSCRASQSVSSSYPSWYQQKPGQAPRLLIYGASSRATGIPDRFSGSGSGTDFTLTISRLEPEDFAVYYCQHYPYPPSFTFGQGTKVEIK
notes: IgG

What was measured:
[1] = target: BCMA (analyte of Table 4A); assay: SPR (Bio-Rad ProteOn XPR36), IgG amine-coupled, BCMA as analyte, kinetic titration; species of BCMA and temperature not stated for Table 4A
Chain of BCMA (analyte of Table 4A) (Q02223 whole entry, the tested form may be a part): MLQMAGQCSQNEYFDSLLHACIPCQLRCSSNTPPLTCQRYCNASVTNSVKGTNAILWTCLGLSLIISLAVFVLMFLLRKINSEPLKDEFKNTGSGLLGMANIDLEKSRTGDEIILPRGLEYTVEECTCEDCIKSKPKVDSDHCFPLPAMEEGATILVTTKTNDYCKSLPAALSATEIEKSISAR
Experimental: All experiments were performed on a Bio-Rad Proteon XPR36 surface Plasmon resonance biosensor (Bio-Rad, Hercules, Calif.). […] The analysis temperature for the immobilization was 25° C. and the running buffer was HBS-T+(10 mM HEPES, 150 mM NaCl, 0.05% Tween-20, pH 7.4). Channels were activated in the analyte (horizontal) direction by injecting a mixture of 1 mM ECD and 0.25 mM NHS for 3 minutes at a flow rate of 30 μL/min. IgGs were immobilized on the activated spots by injecting them in the ligand (vertical) direction at 20 μg/mL in 10 mM Acetate pH 4.5 buffer for 1.5 minutes at […]. The activated surfaces were blocked by injecting 1M ethanolamine, pH 8.5 in the analyte direction for 3 minutes at 30 μL/min.
The analysis temperature for the BCMA binding analysis was 37° C. or 25° C. in a running buffer of HBS-T+, supplemented with 1 mg/mL BSA. A kinetic titration method was employed for the interaction analysis as described in Abdiche, et al. Human BCMA (huBCMA) or cynomolgus monkey BCMA (cyBCMA) analyte was injected in the analyte direction using a series of injections from low to high concentration. The concentrations used were 0.08 nM, 0.4 nM, 2 nM, 10 nM and 50 nM (a 5-membered series, with a 5-fold dilution factor and top concentration of 50 nM). The association time for a given analyte dilution was two minutes. Immediately after the 50 nM BCMA injection, dissociation was monitored for 2 hours.
The sensorgrams were double-referenced and fit to a 1:1 Langmuir with mass transport kinetic titration model in BIAevaluation Software version 4.1.1 (GE Lifesciences, Piscataway, N.J.).

cynomolgus monkey BCMA = target: T2, cynomolgus monkey BCMA (cynomolgus monkey, UniProt A0A2K5UD97 1-53); assay: SPR, IgG immobilised, 37 C
T2 construct: Soluble analyte in SPR; construct not described; also called cyBCMA; Cyno BCMA
T2 sequence (A0A2K5UD97 entry or part of it): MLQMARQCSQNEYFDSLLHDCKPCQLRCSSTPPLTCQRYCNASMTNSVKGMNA
Method in brief: (§1)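 Rate constants come from a 1:1 Langmuir model including mass transport, fitted to double-referenced sensorgrams. Analyte was human or cynomolgus BCMA in five rising concentrations up to 50 nM over amine-coupled IgG; runs were at 25° C or 37° C.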

Human BCMA [2] = target: T1, Human BCMA; assay: SPR, IgG immobilised, 37 C
Method in brief: as §1

Human BCMA [3] = target: T1, Human BCMA; assay: SPR, IgG immobilised, 37 C; huBCMA @25° C.

| Binder | Kd [1] [nM] | koff [1] [s⁻¹] | kon [1] [M⁻¹ s⁻¹] | t1/2 [1] [min] | Kd (cynomolgus monkey BCMA) [nM] | T ½ (cynomolgus monkey BCMA) [min] | koff (cynomolgus monkey BCMA) [s⁻¹] | kon (cynomolgus monkey BCMA) [M⁻¹ s⁻¹] | Kd (Human BCMA [2]) [nM] | T ½ (Human BCMA [2]) [min] | kon (Human BCMA [2]) [M⁻¹ s⁻¹] | koff (Human BCMA [3]) [s⁻¹] |
| --- | --- | --- | --- | --- | --- | --- | --- | --- | --- | --- | --- | --- |
| B1 | 0.059 | 6.2e-05 | 1.1e+06 | 187 |  |  |  |  |  |  |  |  |
| B2 |  |  |  |  | 1.28 | 17.2 | 0.00067 | 525000 | 25.9 | 0.11 | 3.97e+06 | 0.103 |
